The data set concerns the molecule itself. Briefly: cryo-EM structure.

B1: Rsph16 (natural protein, mouse, UniProt Q80Y75 1-316, looked up)
chain: MGLDYYAVLQVTRNSEDAQIKKAYRKLALKNHPLKSSEPGAPEIFKQIAEAYDVLSDPVKRGIYDKFGEEGLKGGIPLEFGSQTPWTTGYVFHGNPDKVFHEFFGGDNPFSEFFDAEGNDIDLNFGGLWGRGVQKQDPPIERDLYLSLEDLFFGCTKKIKISRRVLNEDRYSSTIKDKILTIDVRPGWRQGTRITFEKEGDQGPNIIPADIIFIVKEKLHPRFRREHDNLFFVYPIPLGKALTCCTVEVKTLDDRLLNIPINDIVHPKYFKIVPGEGMPLPENPSKKGDLFIFFDIQFPTRLTPQKKQMLRQALLT
One may read the stoichiometry N as the number of molecules, sites or subunits per partner or assembly. On to B1, for which the “stoichiometry N” value is 2.

The values above are taken from publication doi:10.1101/2023.06.02.543457 (bioRxiv, 2023).
